Our source for the % of beads in quadrant Q2 (Binding-PE positive), + PSR and % of events in Q2 (Expression-FITC positive, Binding-PE positive), + PSR values is patent US20240360223A1.

The target in experiment [1] is poly-specificity reagent (PSR). Briefly: PSR assay: protein on protein A coated beads, biotinylated PSR, SA-PE, flow cytometry; + PSR panel (Q2 is 0 in the No PSR panel FIG. 43E).
In experiment [2] the target is poly-specificity reagent (PSR). The experiment can be described thus: flow cytometry PSR assay: test article on Protein A beads, biotinylated PSR, read-out with SA-PE.
In experiment [3] the target is poly-specificity reagent (PSR). Briefly: flow cytometry PSR assay: test article on protein A beads, biotinylated PSR detected with streptavidin-PE. For orientation: In flow cytometry, cells or beads pass a laser one at a time.

Ixekuzumab (antibody): the % of beads in quadrant Q2 (Binding-PE positive), + PSR in experiment [1] was 27.1%. As for Ixekizumab (antibody), in experiment [2], the % of events in Q2 (Expression-FITC positive, Binding-PE positive), + PSR came to 79.6%. Rituximab (antibody): the % of events in Q2 (Expression-FITC positive, Binding-PE positive), + PSR in experiment [2] stood at 56.2%. Take “Ixekizumab (PSR positive control) (antibody)”: the % of events in Q2 (Expression-FITC positive, Binding-PE positive), + PSR in experiment [3] was 79.6%.

Take trastuzumab (antibody): the % of events in Q2 (Expression-FITC positive, Binding-PE positive), + PSR in experiment [2] was 0.087%; in experiment [3], 0.067%.
